Experimental data from patent publication US20240132595A1.
Blank lines part the entries; values can stand above or below the binder they belong to.

Assays:
[1] = target: canine MHC Class I DLA-12 antigen (canine (Canis lupus familiaris)); assay: flow cytometry on cells of CLBL-1 xenograft tumours (PBS group) [B]
[2] = target: canine MHC Class I DLA-12 antigen (canine (Canis lupus familiaris)); assay: flow cytometry on canine PBMCs [E]

- FL1-H (percent of cells in the positive gate) [1]: 89.4%
- FITC-H subset (percent of cells in the positive gate) [2]: 59.4%
B1: cLy-m10C5 (antibody, V domains shown)
VH: EVQLQQSGPELVKPGASVKISCKASGYTFTDYNMHWVKQSHGKSLEWIGYIYPYNGGTDYNQKFKSKATLTVDNSSSTAYMELRSLTSDDSTVYYCARGGLVGAMDYWGQGTSVTVSS
VL: DIQMTQSPASLSASVGETVTITCRASGNIHNSLAWYQQKQGKSPQLLVYNAKTLPDGVPSRFSGSGSGTQYSLKINSLQPEDFGSYYCQHFWSIPWTFGGGTKLEIK

- FITC-A (percent of cells in the positive gate) [1]: 98.7%
B2: cLy-c10C5 (antibody, V domains shown)
VH: B1 VH
VL: B1 VL
